Source: patent US20090298167A1 (Pfizer, published 2009)
Positions count from the first letter of the chain named.

T1: human gamma common chain expressed on CHO cells (human, UniProt P31785 23-369)
T1 construct: whole, on cells; Control protein; also called human IL-2R-γ common subunit; human gamma (γ) common chain
T1 sequence (looked up): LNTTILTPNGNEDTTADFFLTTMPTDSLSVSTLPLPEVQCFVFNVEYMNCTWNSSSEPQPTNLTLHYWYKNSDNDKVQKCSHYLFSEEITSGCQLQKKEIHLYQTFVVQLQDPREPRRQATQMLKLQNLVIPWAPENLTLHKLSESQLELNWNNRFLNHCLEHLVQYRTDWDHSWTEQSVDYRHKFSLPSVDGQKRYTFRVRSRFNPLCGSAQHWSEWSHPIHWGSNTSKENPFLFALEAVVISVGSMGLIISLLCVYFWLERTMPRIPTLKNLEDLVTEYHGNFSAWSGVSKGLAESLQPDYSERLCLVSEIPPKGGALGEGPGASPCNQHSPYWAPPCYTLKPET

B1: AbA (antibody, human IgG1, V domains shown)
VH: QVQLQESGPGLVKPSETLSLTCAVSGYSISSGYYWGWIRQPPGKGLEWIGSISHTGNTYYNPPLKSRVTISVDTSKNQFSLKLSSVTAADTAVYYCARGGGISRPEYWGQGTLVTVSS
VL: SSELTQDPAVSVALGQTVRITCQGDSLRTYYASWYQQKPGQAPVLVIYGKHKRPSGIPDRFSGSSSGNTASLTITGAQAEDEADYYCVARSVVGNPHVLFGGGTQLTVL
notes: Full-length human IgG1 / human lambda, transient, conditioned medium; Framework limits derived; also called VHP/VL2
B2: AbI (antibody, human IgG1, V domains shown)
VH: B1 VH
VL: B1 VL with V88I, V92N, V93K
notes: Full-length human IgG1 / human lambda, transient, conditioned medium; Framework limits derived; also called VHP/VL24
B3: AbB (antibody, human IgG1, V domains shown)
VH: B1 VH
VL: B1 VL with A89S, S91A
notes: Full-length human IgG1 / human lambda, transient, conditioned medium; Framework limits derived; also called VHP/VL3
B4: AbC (antibody, human IgG1, V domains shown)
VH: B1 VH
VL: B1 VL with V88S, A89S, V92R, V93H
notes: Full-length human IgG1 / human lambda, transient, conditioned medium; Framework limits derived; also called VHP/VL11
B5: AbK (antibody, human IgG1, V domains shown)
VH: B1 VH with G99F, G100M, I102F, S103G
VL: B1 VL with A89S, S91A
notes: Full-length human IgG1 / human lambda, transient, conditioned medium; Framework limits derived; also called VH3/VL3
B6: AbF (antibody, human IgG1, V domains shown)
VH: B1 VH
VL: B1 VL with V88S, A89T, V92R, V93K
notes: Full-length human IgG1 / human lambda, transient, conditioned medium; Framework limits derived; also called VHP/VL17
B7: AbH (antibody, human IgG1, V domains shown)
VH: B1 VH
VL: B1 VL with S91A, V93R
notes: Full-length human IgG1 / human lambda, transient, conditioned medium; Framework limits derived; also called VHP/VL19
B8: AbM (antibody, human IgG1, V domains shown)
VH: B1 VH with G99F, G100F, I102F, S103G
VL: B1 VL with A89T, S91N, V92R, V93Y
notes: Full-length human IgG1 / human lambda, transient, conditioned medium; Framework limits derived; also called VH6/VL13
B9: AbJ (antibody, human IgG1, V domains shown)
VH: B1 VH with G99F, G100M, I102F, S103G
VL: B1 VL with V88N, A89S, S91D, V92S, V93S
notes: Full-length human IgG1 / human lambda, transient, conditioned medium; Framework limits derived; also called VH3/VLP
B10: AbE (antibody, human IgG1, V domains shown)
VH: B1 VH
VL: B1 VL with V88M, V92R, V93K
notes: Full-length human IgG1 / human lambda, transient, conditioned medium; Framework limits derived; also called VHP/VL14
B11: AbN (antibody, human IgG1, V domains shown)
VH: B1 VH with G99F, G100F, I102F, S103G
VL: B1 VL with V88I, V92N, V93K
notes: Full-length human IgG1 / human lambda, transient, conditioned medium; Framework limits derived; also called VH6/VL24
B12: AbV (antibody, human IgG1, V domains shown)
VH: B1 VH with G99F, G100M, I102F, S103G
VL: B1 VL
B13: AbW (antibody, human IgG1, V domains shown)
VH: B1 VH with G99F, G100M, I102F, S103G
VL: B1 VL with A89T, V93K

molecular target: T2, human IL-21R expressed on cells (human, UniProt Q9HBE5 20-538); assay: cell-based or functional assay
T2 sequence (Q9HBE5 20-538 limits assumed): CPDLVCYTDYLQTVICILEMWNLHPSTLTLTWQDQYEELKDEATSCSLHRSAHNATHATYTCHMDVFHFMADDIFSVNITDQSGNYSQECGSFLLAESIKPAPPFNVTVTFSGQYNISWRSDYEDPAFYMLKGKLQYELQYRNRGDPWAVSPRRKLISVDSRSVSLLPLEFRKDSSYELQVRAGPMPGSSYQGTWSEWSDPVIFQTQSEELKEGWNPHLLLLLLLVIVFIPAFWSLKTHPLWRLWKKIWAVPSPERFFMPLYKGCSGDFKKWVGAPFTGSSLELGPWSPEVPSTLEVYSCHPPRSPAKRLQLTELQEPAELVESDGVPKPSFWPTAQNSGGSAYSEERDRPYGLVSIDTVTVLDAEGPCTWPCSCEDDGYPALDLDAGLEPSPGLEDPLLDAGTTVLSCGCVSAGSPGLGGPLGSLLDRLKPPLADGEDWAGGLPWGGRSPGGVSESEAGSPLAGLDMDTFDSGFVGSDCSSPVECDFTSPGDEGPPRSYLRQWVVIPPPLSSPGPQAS

Row | Binder | Human IL-21R-BaF3 Proliferation IC50 | Human IL-21R-TF1 Proliferation IC50
1 | B1 | 970 pM | 3800 pM
2 | B2 | 1000 pM | 3800 pM
3 | B3 | 1140 pM | 3340 pM
4 | B4 | 820 pM | 3360 pM
5 | B5 | 980 pM | 4000 pM
6 | B6 | 540 pM | 2410 pM
7 | B7 | 940 pM | 3640 pM
8 | B8 | 1080 pM | 4220 pM
9 | B9 | 650 pM | 4600 pM
10 | B10 | 560 pM | 2280 pM
11 | B11 | 500 pM | 1590 pM

molecular target: murine IL-21R expressed on cells (murine, UniProt Q9JHX3 20-529); assay: cell-based or functional assay
Sequence (Q9JHX3 20-529 limits assumed): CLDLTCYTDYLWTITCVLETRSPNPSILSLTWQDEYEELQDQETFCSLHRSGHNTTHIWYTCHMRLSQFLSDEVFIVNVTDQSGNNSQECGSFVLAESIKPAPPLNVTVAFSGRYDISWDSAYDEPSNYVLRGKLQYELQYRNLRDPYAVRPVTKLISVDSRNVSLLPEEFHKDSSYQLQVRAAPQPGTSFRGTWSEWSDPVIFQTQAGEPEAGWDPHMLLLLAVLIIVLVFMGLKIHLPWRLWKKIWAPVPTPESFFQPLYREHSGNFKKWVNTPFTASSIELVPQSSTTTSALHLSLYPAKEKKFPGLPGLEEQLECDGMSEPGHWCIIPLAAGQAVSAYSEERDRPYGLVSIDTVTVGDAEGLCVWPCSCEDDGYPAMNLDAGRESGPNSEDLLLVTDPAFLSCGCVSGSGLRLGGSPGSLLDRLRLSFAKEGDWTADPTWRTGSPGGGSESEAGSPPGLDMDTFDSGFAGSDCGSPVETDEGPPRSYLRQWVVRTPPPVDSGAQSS

Row | Binder | Murine IL-21R-BaF3 Proliferation IC50
12 | B1 | 80 pM
13 | B2 | 224 pM
14 | B3 | 421 pM
15 | B4 | 30 pM
16 | B5 | 79 pM
17 | B6 | 304 pM
18 | B7 | 327 pM
19 | B8 | 125 pM
20 | B9 | 400 pM
21 | B10 | 40 pM
22 | B11 | 435 pM

molecular target: rat IL-21R expressed on cells (rat); assay: cell-based or functional assay

Row | Binder | IC50 (nM) experiment 1, rat T cell proliferation | IC50 (nM) experiment 2, rat T cell proliferation
23 | B12 | 70.5 nM | 59.2 nM
24 | B13 | 159 nM | 94.7 nM

molecular target: T2, human IL-21R expressed on cells; assay: cell ELISA on transfected CHO cells, 13 nM IgG
Description: (§1) A subset of binding proteins was tested for binding to rat, cynomolgus monkey, human IL-21R, or human IL-2R-γ common subunit expressed transiently on the surfaces of CHO-PA-Dukx cells. Cells were transfected 48 hr prior to the assay. On the day of the assay, cells were washed gently 5× in PBS containing 0.9 mM CaCl₂ and 0.45 mM MgCl₂ (PBS/CaMg) on an automated plate washer (Titertek, Huntsville, Ala.), and blocked for 1 hr at RT in PBS/CaMg/5% nonfat dry milk. Conditioned media from transiently expressed anti-IL-21R IgGs were serially diluted in blocking buffer and added to the cells in the blocked plates for 1 hr at RT. Cells were washed 5× with PBS/CaMg and then incubated with horseradish peroxidase-conjugated anti-human IgG for 1 hr at RT. Cells were then washed 10× in PBS/CaMg and all of the wash buffer was removed. Cells were incubated with 100 μl TMB until the color reaction reached saturation, stopped with 100 μl of 0.18 M H₂SO₄, and read at A450 on a Perkin Elmer ENVISION™ plate reader.

Row | Binder | A450 at 13 nM Ab in cell ELISA
25 | B1 | 1.2 A450
26 | B2 | 1.24 A450
27 | B3 | 1.15 A450
28 | B4 | 1.22 A450
29 | B5 | 1.36 A450
30 | B6 | 1.35 A450
31 | B7 | 1.35 A450
32 | B8 | 1.2 A450
33 | B9 | 1.22 A450
34 | B10 | 1.26 A450
35 | B11 | 1.21 A450

molecular target: T3, rat IL-21R expressed on cells (rat); assay: cell ELISA on transfected CHO cells, 13 nM IgG
T3 construct: whole, on cells; Transiently transfected CHO-PA-Dukx cells
Description: as §1

Row | Binder | A450 at 13 nM Ab in cell ELISA
36 | B1 | 1.12 A450
37 | B2 | 1.09 A450
38 | B3 | 1.09 A450
39 | B4 | 0.999 A450
40 | B5 | 1.18 A450
41 | B6 | 1 A450
42 | B7 | 1.1 A450
43 | B8 | 0.78 A450
44 | B9 | 1.26 A450
45 | B10 | 1.11 A450
46 | B11 | 0.702 A450

molecular target: T4, cynomolgus monkey IL-21R expressed on CHO cells (cynomolgus monkey); assay: cell ELISA on transfected CHO cells, 13 nM IgG
T4 construct: whole, on cells
Description: as §1

Row | Binder | A450 at 13 nM Ab in cell ELISA
47 | B1 | 1.35 A450
48 | B2 | 1.21 A450
49 | B3 | 1.33 A450
50 | B4 | 1.28 A450
51 | B5 | 1.34 A450
52 | B6 | 1.46 A450
53 | B7 | 1.32 A450
54 | B8 | 1.45 A450
55 | B9 | 1.27 A450
56 | B10 | 1.42 A450
57 | B11 | 1.5 A450

molecular target: T1, human gamma common chain expressed on …; assay: cell ELISA on transfected CHO cells, 13 nM IgG
Description: as §1

Row | Binder | A450 at 13 nM Ab in cell ELISA
58 | B1 | 0.111 A450
59 | B2 | 0.107 A450
60 | B3 | 0.107 A450
61 | B4 | 0.137 A450
62 | B5 | 0.108 A450
63 | B9 | 0.126 A450
64 | B11 | 0.136 A450
